# Source: patent publication US20220332804A1 (CSL INNOVATION, published 2022)
# T1: human C2 G432A (human, UniProt P06681 21-752)
# T1 sequence: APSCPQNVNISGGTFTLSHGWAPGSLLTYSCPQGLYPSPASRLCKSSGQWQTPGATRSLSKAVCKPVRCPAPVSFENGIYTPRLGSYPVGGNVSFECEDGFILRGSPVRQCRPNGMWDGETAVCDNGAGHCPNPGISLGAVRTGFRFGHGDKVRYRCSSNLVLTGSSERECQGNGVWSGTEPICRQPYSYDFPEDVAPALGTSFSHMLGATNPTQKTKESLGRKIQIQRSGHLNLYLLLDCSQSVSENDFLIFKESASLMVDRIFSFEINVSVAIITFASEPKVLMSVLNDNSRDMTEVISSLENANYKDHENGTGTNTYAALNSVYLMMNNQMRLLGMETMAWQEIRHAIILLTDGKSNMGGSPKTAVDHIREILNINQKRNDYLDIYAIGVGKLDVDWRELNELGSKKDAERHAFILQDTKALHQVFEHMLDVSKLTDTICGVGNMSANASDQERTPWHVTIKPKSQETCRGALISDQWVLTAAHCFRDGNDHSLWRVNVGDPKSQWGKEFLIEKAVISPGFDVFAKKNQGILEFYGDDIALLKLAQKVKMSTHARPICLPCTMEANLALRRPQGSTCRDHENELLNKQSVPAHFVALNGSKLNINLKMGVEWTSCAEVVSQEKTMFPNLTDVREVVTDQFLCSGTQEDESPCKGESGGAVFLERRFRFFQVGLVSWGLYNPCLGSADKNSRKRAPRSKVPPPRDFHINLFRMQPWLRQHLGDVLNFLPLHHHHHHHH
# T2: human C2 A436S (human, UniProt P06681 21-752)
# T2 sequence: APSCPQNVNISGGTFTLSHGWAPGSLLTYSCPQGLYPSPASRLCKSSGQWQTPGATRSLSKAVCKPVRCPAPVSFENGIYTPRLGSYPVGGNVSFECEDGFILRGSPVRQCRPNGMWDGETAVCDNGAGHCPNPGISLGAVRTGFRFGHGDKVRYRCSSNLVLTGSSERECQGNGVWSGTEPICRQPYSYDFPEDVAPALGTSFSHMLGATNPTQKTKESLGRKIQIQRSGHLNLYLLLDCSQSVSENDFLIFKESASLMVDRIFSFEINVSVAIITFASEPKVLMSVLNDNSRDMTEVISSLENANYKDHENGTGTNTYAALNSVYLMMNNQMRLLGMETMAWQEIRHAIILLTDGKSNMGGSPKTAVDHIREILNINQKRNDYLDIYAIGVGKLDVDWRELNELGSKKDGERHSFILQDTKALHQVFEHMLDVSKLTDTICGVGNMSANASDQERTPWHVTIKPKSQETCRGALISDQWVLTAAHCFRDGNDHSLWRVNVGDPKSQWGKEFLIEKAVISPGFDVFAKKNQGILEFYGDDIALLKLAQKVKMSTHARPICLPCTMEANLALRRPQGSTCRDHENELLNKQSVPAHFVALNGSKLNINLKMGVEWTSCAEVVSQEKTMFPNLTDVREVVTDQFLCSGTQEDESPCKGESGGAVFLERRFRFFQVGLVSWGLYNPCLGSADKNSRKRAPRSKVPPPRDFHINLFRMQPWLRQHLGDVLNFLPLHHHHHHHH
# T3: human C2 N424A (human, UniProt P06681 21-752)
# T3 sequence: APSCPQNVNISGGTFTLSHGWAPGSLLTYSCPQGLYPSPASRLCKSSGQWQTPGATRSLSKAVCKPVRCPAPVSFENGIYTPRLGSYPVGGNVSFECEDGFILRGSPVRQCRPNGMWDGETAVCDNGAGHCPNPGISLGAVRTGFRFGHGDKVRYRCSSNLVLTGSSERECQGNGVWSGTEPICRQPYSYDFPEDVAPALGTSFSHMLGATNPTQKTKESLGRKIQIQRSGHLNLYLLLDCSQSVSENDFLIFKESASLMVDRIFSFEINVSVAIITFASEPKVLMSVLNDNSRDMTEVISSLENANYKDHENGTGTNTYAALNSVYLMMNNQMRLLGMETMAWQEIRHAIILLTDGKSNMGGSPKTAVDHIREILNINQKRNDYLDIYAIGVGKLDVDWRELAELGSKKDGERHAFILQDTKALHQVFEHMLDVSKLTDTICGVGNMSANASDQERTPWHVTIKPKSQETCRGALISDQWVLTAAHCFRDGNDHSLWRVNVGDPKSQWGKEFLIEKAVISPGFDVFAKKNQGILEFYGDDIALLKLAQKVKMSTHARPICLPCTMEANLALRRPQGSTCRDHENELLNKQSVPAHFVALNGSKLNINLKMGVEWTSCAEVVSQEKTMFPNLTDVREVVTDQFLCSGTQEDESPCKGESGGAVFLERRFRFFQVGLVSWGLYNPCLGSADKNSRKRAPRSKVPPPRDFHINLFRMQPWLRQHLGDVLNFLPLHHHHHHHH
# T4: human C2 E433A (human, UniProt P06681 21-752)
# T4 sequence: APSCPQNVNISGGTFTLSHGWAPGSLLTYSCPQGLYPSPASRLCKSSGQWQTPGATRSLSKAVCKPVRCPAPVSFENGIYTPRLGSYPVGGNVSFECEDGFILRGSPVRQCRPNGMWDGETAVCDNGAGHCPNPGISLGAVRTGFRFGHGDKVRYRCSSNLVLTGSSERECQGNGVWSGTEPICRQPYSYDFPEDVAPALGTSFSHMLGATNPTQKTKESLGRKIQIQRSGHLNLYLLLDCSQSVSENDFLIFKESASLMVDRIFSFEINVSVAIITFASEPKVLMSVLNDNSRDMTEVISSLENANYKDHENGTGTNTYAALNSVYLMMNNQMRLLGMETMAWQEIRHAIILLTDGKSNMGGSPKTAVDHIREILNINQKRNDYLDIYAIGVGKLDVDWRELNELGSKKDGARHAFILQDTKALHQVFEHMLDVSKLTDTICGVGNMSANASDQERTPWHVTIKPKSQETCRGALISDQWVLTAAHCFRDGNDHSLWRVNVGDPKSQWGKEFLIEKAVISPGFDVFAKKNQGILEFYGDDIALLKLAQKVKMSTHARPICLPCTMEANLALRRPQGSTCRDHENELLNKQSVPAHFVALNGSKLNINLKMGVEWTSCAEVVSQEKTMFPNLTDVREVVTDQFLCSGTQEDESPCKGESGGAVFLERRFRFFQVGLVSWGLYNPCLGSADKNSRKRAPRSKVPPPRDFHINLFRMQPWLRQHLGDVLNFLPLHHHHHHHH
# Key:
# Assay in all cases: SPR, KD relative to WT C2;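 also: biacore SPR at 37 °C, anti-C2 mAbs captured on anti-human IgG chips with alanine or serine point mutants of C2 as analyte, KD from 1:1 fit compared with wild-type C2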
# human C2 G432A = target: T1, human C2 G432A
# human C2 A436S = target: T2, human C2 A436S
# human C2 N424A = target: T3, human C2 N424A
# human C2 E433A = target: T4, human C2 E433A
binder,measurement,setting,value
"RF16-242 (antibody, human IgG4 S228P, lambda, V domains shown, pH-dependent anti-C2 antibody from a phage display library) VH: EVQLLQSGAEVKKPGESLKISCKGSGYSFTSYWIGWVRQMPGKGLEWMGIIYPGDSDTRYSPSFQGQVTISADKSISTAYLQWSSLKASDTAMYYCARRGHYGDYFDYWGQGTLVTVSS VL: SYELTQPPSVSVSPGQTARITCSGDALPKKYAYWYHQKSGQAPVLVIYEDRRRPSEIPERFSGSSSGTMATLTITGAQVEDEGVYFCYSRDRAGNQRVFGGGTQLTVLG",Fold diff,human C2 G432A,1 fold
same,Fold diff,human C2 A436S,1 fold
same,Fold diff,human C2 N424A,1 fold
same,Fold diff,human C2 E433A,0 fold
